The results in this text go back to US20140112929A1.

In this assay the target is TNFR1 on human umbilical vein endothelial cells (HUVEC) (human) (UniProt P19438).
UniProt P19438, sequence (P19438 30-455): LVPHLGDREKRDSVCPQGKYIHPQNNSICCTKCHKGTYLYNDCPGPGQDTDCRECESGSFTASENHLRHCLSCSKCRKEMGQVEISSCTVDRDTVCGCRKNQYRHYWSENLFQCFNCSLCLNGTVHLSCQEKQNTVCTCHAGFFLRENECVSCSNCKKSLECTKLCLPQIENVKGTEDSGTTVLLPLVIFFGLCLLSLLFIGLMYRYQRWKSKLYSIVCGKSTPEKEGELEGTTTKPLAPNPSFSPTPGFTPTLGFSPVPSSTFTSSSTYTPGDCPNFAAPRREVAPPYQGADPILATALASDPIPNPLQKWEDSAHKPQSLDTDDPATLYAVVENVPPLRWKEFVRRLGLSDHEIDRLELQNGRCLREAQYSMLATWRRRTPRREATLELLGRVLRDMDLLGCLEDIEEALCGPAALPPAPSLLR

DOM1h-131-206, sequence (VH): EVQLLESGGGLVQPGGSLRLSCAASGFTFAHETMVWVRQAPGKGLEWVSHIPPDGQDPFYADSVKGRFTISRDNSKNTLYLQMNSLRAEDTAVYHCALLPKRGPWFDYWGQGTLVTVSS

Turning to DOM1h-131-206, the IC50 (read off the curve) [b] amounted to 0.5 nM.
